# Experimental data as given in patent US20240059799A1 (Pfizer, published 2024).
# T1: human IL-23 (human, UniProt P29460 23-328; Q9NPF7 20-189)
# T1 construct: Heterodimer p40/p19; Whole entries as named; also called IL-23 Human; recombinant human IL-23
# T1 sequence 1: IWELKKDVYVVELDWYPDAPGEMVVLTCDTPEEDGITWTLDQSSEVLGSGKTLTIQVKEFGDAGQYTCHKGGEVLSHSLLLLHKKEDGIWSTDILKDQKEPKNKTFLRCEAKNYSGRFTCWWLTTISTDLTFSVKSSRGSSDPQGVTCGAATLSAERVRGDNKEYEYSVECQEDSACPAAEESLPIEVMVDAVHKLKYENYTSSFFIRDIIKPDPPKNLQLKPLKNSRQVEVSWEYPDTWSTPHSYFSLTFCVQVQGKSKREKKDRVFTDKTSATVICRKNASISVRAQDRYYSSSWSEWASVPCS
# T1 sequence 2: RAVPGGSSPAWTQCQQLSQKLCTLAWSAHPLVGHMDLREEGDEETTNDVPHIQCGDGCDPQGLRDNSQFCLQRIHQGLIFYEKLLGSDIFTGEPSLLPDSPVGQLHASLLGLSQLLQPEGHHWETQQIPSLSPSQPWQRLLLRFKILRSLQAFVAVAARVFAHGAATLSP
# T2: recombinant human TL1A (human, UniProt O95150 71-251)
# T2 construct: Homotrimeric cytokine; biotinylated with Sulfo-NHS-biotin where captured for SPR, coated unlabelled in ELISA, soluble in bioassays; also called TNFSF15
# T2 chain: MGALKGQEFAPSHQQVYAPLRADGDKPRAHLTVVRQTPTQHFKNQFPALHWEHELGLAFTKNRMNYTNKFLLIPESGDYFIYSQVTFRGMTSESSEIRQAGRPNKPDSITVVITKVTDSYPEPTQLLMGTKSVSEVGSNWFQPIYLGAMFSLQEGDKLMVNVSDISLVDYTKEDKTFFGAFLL
# Legend:
# human IL-23 [1] = target: T1, human IL-23; assay: SPR 37 C, bispecific captured by anti-human Fc, human IL-23 injected
# Description: (§1) SPR was utilized to determine if the affinity constants of each arm of the bispecific variants binding human IL-23, containing the p40 subunit, and human TL1A were the same for each bispecific approach. For the analysis of the p40 binding arm, kinetic assays were conducted at 37° C. using a collection rate of 10 Hz on a Biacore™ 8 K+ instrument (GE Healthcare). An anti-human IgG antibody (anti-human Fc, GE Healthcare, 22-0648-88) was amine coupled to all four flow cells of a carboxymethylated dextran coated sensor chip (GE Healthcare,) using the manufacturer's recommended protocol. […] For the analysis of the TL1A binding arm, kinetic assays were conducted at 37° C. using a collection rate of 10 Hz on a Biacore™ T200 instrument (GE Healthcare).
# recombinant human TL1A = target: T2, recombinant human TL1A; assay: SPR 37 C, biotinylated human TL1A captured, bispecific injected
# Description: as §1
# human IL-23 [2] = target: T1, human IL-23; assay: SPR, bispecific held on captured biotinylated human TL1A, then human IL-23 injected (simultaneous binding)
# Description: SPR was used to determine if the bispecific variants could simultaneously bind TL1A and IL-23, containing the p40 domain. For this analysis, a semi-quantitative SPR method was developed using Biacore™ T200 (GE Healthcare) instrumentation. […] The bispecific was injected for 90 seconds at a concentration of 20 μg/m L, a flow rate of 50 μL/minute, and captured to a level of approximately 40-150 RU. Next, recombinant human IL-23 was injected for 60 seconds and a flow rate of 50 μL/minute at a concentration range of 0.37-15 nM.
Binder,Kd (human IL-23 [1]),koff (human IL-23 [1]),kon (human IL-23 [1]),Kd (recombinant human TL1A),koff (recombinant human TL1A),kon (recombinant human TL1A),Kd (human IL-23 [2]),koff (human IL-23 [2]),kon (human IL-23 [2])
"p40TL1A-0024 (bispecific antibody, human IgG1, kappa, dual cell, E/R, LS) heavy 1: EVQLVQSGAEVKKPGESLKISCKGSGYSFTTYWLGWVRQMPGKGLDWIGIMSPVDSDIRYSPSFQGQVTMSVDKSITTAYLQWNSLKASDTAMYYCARRRPGQGYFDFWGQGTLVTVSSASTKGPSVFPLAPSSKSTSGGTAALGCLVKDYFPEPVTVSWNSGALTSGVHTFPAVLQSSGLYSLSSVVTVPSSSLGTQTYICNVNHKPSNTKVDKKVEPKSCDKTHTCPPCPAPEAAGAPSVFLFPPKPKDTLMISRTPEVTCVVVDVSHEDPEVKFNWYVDGVEVHNAKTKPREEQYNSTYRVVSVLTVLHQDWLNGKEYKCKVSNKALPAPIEKTISKAKGQPREPQVYTLPPSREEMTKNQVSLTCLVKGFYPSDIAVEWESNGQPENNYKTTPPVLDSDGSFFLYSRLTVDKSRWQQGNVFSCSVLHEALHSHYTQKSLSLSPGK light 1: not shown heavy 2: QVQLVQSGAEVKKPGASVKVSCKASGYDYTYYGISWVRQAPGQGLEWMGWISTYNTGTHYAPSLQGRVTMTTDTSTSTAYMELRSLRSDDTAVYYCARESYYGSGAFRGGMDVWGQGTTVTVSSASTKGPSVFPLAPSSKSTSGGTAALGCLVKDYFPEPVTVSWNSGALTSGVHTFPAVLQSSGLYSLSSVVTVPSSSLGTQTYICNVNHKPSNTKVDKKVEPKSCDKTHTCPPCPAPEAAGAPSVFLFPPKPKDTLMISRTPEVTCVVVDVSHEDPEVKFNWYVDGVEVHNAKTKPREEQYNSTYRVVSVLTVLHQDWLNGKEYKCKVSNKALPAPIEKTISKAKGQPREPQVYTLPPSREEMTKNQVSLTCEVKGFYPSDIAVEWESNGQPENNYKTTPPVLDSDGSFFLYSKLTVDKSRWQQGNVFSCSVLHEALHSHYTQKSLSLSPGK light 2: not shown",0.9 nM,0.00157 s⁻¹,1.75e+06 M⁻¹ s⁻¹,0.273 nM,5.99e-05 s⁻¹,219000 M⁻¹ s⁻¹,0.107 nM,0.000571 s⁻¹,5.32e+06 M⁻¹ s⁻¹
"p40TL1A-0021 (bispecific antibody, dual cell, EE/RR, LS) heavy 1: EVQLVQSGAEVKKPGESLKISCKGSGYSFTTYWLGWVRQMPGKGLDWIGIMSPVDSDIRYSPSFQGQVTMSVDKSITTAYLQWNSLKASDTAMYYCARRRPGQGYFDFWGQGTLVTVSSASTKGPSVFPLAPSSKSTSGGTAALGCLVKDYFPEPVTVSWNSGALTSGVHTFPAVLQSSGLYSLSSVVTVPSSSLGTQTYICNVNHKPSNTKVDKKVEPKSCRKTHTCPPCPAPEAAGAPSVFLFPPKPKDTLMISRTPEVTCVVVDVSHEDPEVKFNWYVDGVEVHNAKTKPREEQYNSTYRVVSVLTVLHQDWLNGKEYKCKVSNKALPAPIEKTISKAKGQPREPQVYTLPPSREEMTKNQVSLTCLVKGFYPSDIAVEWESNGQPENNYKTTPPVLDSDGSFFLYSRLTVDKSRWQQGNVFSCSVLHEALHSHYTQKSLSLSPGK light 1: not shown heavy 2: QVQLVQSGAEVKKPGASVKVSCKASGYDYTYYGISWVRQAPGQGLEWMGWISTYNTGTHYAPSLQGRVTMTTDTSTSTAYMELRSLRSDDTAVYYCARESYYGSGAFRGGMDVWGQGTTVTVSSASTKGPSVFPLAPSSKSTSGGTAALGCLVKDYFPEPVTVSWNSGALTSGVHTFPAVLQSSGLYSLSSVVTVPSSSLGTQTYICNVNHKPSNTKVDKKVEPKSCEKTHTCPPCPAPEAAGAPSVFLFPPKPKDTLMISRTPEVTCVVVDVSHEDPEVKFNWYVDGVEVHNAKTKPREEQYNSTYRVVSVLTVLHQDWLNGKEYKCKVSNKALPAPIEKTISKAKGQPREPQVYTLPPSREEMTKNQVSLTCEVKGFYPSDIAVEWESNGQPENNYKTTPPVLDSDGSFFLYSKLTVDKSRWQQGNVFSCSVLHEALHSHYTQKSLSLSPGK light 2: not shown",0.859 nM,0.00152 s⁻¹,1.77e+06 M⁻¹ s⁻¹,0.183 nM,5.6e-05 s⁻¹,307000 M⁻¹ s⁻¹,0.0738 nM,0.000524 s⁻¹,7.11e+06 M⁻¹ s⁻¹

# Results, then the binder that gave them:
Kd (human IL-23 [1]),koff (human IL-23 [1]),kon (human IL-23 [1]),Kd (recombinant human TL1A),koff (recombinant human TL1A),kon (recombinant human TL1A),Kd (human IL-23 [2]),koff (human IL-23 [2]),kon (human IL-23 [2]),Binder
0.659 nM,0.00121 s⁻¹,1.83e+06 M⁻¹ s⁻¹,0.217 nM,4.87e-05 s⁻¹,224000 M⁻¹ s⁻¹,0.0944 nM,0.000521 s⁻¹,5.51e+06 M⁻¹ s⁻¹,"p40TL1A-0018 (bispecific antibody, human IgG1, kappa, dual cell, KiH without Cys in CH3, LS) heavy 1: EVQLVQSGAEVKKPGESLKISCKGSGYSFTTYWLGWVRQMPGKGLDWIGIMSPVDSDIRYSPSFQGQVTMSVDKSITTAYLQWNSLKASDTAMYYCARRRPGQGYFDFWGQGTLVTVSSASTKGPSVFPLAPSSKSTSGGTAALGCLVKDYFPEPVTVSWNSGALTSGVHTFPAVLQSSGLYSLSSVVTVPSSSLGTQTYICNVNHKPSNTKVDKKVEPKSCDKTHTCPPCPAPEAAGAPSVFLFPPKPKDTLMISRTPEVTCVVVDVSHEDPEVKFNWYVDGVEVHNAKTKPREEQYNSTYRVVSVLTVLHQDWLNGKEYKCKVSNKALPAPIEKTISKAKGQPREPQVYTLPPSREEMTKNQVSLWCLVKGFYPSDIAVEWESNGQPENNYKTTPPVLDSDGSFFLYSKLTVDKSRWQQGNVFSCSVLHEALHSHYTQKSLSLSPGK light 1: not shown heavy 2: QVQLVQSGAEVKKPGASVKVSCKASGYDYTYYGISWVRQAPGQGLEWMGWISTYNTGTHYAPSLQGRVTMTTDTSTSTAYMELRSLRSDDTAVYYCARESYYGSGAFRGGMDVWGQGTTVTVSSASTKGPSVFPLAPSSKSTSGGTAALGCLVKDYFPEPVTVSWNSGALTSGVHTFPAVLQSSGLYSLSSVVTVPSSSLGTQTYICNVNHKPSNTKVDKKVEPKSCDKTHTCPPCPAPEAAGAPSVFLFPPKPKDTLMISRTPEVTCVVVDVSHEDPEVKFNWYVDGVEVHNAKTKPREEQYNSTYRVVSVLTVLHQDWLNGKEYKCKVSNKALPAPIEKTISKAKGQPREPQVYTLPPSREEMTKNQVSLSCAVKGFYPSDIAVEWESNGQPENNYKTTPPVLDSDGSFFLVSKLTVDKSRWQQGNVFSCSVLHEALHSHYTQKSLSLSPGK light 2: not shown"
0.901 nM,0.00156 s⁻¹,1.73e+06 M⁻¹ s⁻¹,0.167 nM,4.28e-05 s⁻¹,256000 M⁻¹ s⁻¹,0.09 nM,0.000584 s⁻¹,5.98e+06 M⁻¹ s⁻¹,"p40TL1A-0001 (bispecific antibody, dual cell, EEE/RRR, LS) heavy 1: EVQLVQSGAEVKKPGESLKISCKGSGYSFTTYWLGWVRQMPGKGLDWIGIMSPVDSDIRYSPSFQGQVTMSVDKSITTAYLQWNSLKASDTAMYYCARRRPGQGYFDFWGQGTLVTVSSASTKGPSVFPLAPSSKSTSGGTAALGCLVKDYFPEPVTVSWNSGALTSGVHTFPAVLQSSGLYSLSSVVTVPSSSLGTQTYICNVNHKPSNTKVDKKVEPKSCRKTHTCPRCPAPEAAGAPSVFLFPPKPKDTLMISRTPEVTCVVVDVSHEDPEVKFNWYVDGVEVHNAKTKPREEQYNSTYRVVSVLTVLHQDWLNGKEYKCKVSNKALPAPIEKTISKAKGQPREPQVYTLPPSREEMTKNQVSLTCLVKGFYPSDIAVEWESNGQPENNYKTTPPVLDSDGSFFLYSRLTVDKSRWQQGNVFSCSVLHEALHSHYTQKSLSLSPGK light 1: not shown heavy 2: QVQLVQSGAEVKKPGASVKVSCKASGYDYTYYGISWVRQAPGQGLEWMGWISTYNTGTHYAPSLQGRVTMTTDTSTSTAYMELRSLRSDDTAVYYCARESYYGSGAFRGGMDVWGQGTTVTVSSASTKGPSVFPLAPSSKSTSGGTAALGCLVKDYFPEPVTVSWNSGALTSGVHTFPAVLQSSGLYSLSSVVTVPSSSLGTQTYICNVNHKPSNTKVDKKVEPKSCEKTHTCPECPAPEAAGAPSVFLFPPKPKDTLMISRTPEVTCVVVDVSHEDPEVKFNWYVDGVEVHNAKTKPREEQYNSTYRVVSVLTVLHQDWLNGKEYKCKVSNKALPAPIEKTISKAKGQPREPQVYTLPPSREEMTKNQVSLTCEVKGFYPSDIAVEWESNGQPENNYKTTPPVLDSDGSFFLYSKLTVDKSRWQQGNVFSCSVLHEALHSHYTQKSLSLSPGK light 2: not shown"
